From the DeepSol protein solubility set

Test: soluble on expression in E. coli; label from the status in PepcDB or PDB records

Sequence | soluble on expression in E. coli
MKFLPLLALLISPFVSALTLDDLQQRFTEQPVIRAHFDQTRTIKDLPQPLRSQGQMLIARDQGLLWDQTSPFPMQLLLDDKRMVQVINGQPPQIITAENNPQMFQFNHLLRALFQADRKVLEQNFRVEFADKGEGRWTLRLTPTTTPLDKIFNTIDLAGKTYLESIQLNDKQGDRTDIALTQHQLTPAQLTDDERQRFAAQ | not soluble
MTVSTPPSIATGNAPSPDYRVEILSESLPFIQKFRGKTIVVKYGGAAMTSPELKSSVVSDLVLLACVGLRPILVHGGGPDINRYLKQLNIPAEFRDGLRVTDATTMEIVSMVLVGKVNKNLVSLINAAGATAVGLSGHDGRLLTARPVPNSAQLGFVGEVARVDPSVLRPLVDYGYIPVIASVAADDSGQAYNINADTVAGELAAALGAEKLILLTDVAGILENKEDPSSLIKEIDIKGVKKMIEDGKVAGGMIPKVKCCIRSLAQGVKTASIIDGRRQHSLLHEIMSDEGAGTMITG | soluble
KVYSLRLNQKRNEKPSIFANENVRKALAYALDKKSLVDNILADGSKEIYGYIPEKFVYNPETNEDFRQEAGALVKTDAKKAKEYLDKAKAELNGDVAIELLSRDGDSDRKVAEFIQGQLQETLPGLTINVKTVPLNNAIELMRKGDYELSVGMWGPDYQDPMTFLESSVSGNRMNYSSPTFDQLIEEATTKYANEPETRWQTLIKAEKVLVEEDAALIPLYQEA | not soluble
AENAKIKFDGVDVERDSNVINDLVPNVTLSLKKPSSDMVEAKIEPDYEGIKRVLLDFIGAYNEVLAEINIVSSNEDQPNNQKSNIVEELTYLSDSQKEEAYKNLGILRSEFLLKNLKSKLESIIFKPYVTSDPNFSIINQMGVFTNSISSSGGLSRYLRLDEKKFDESIRNNIDNVRELFLYDLNGDRVYDNGIAKMLGDCLSPLVASGGVIYNKIKNYDLKIFNQKNKVEDYKKKYEDRERKVEGELNTLDFTVKRMKD | not soluble
MTSVNKKRNARKNQEPTSNMTIETEDGTQADRPKKRPAKKRSKVVRRAAQYGDVNEPILRDFVKATIQTGVKQLSTEFLNLKMETQPCNKPKTGHEGHPEKNRYKDVYCIDDTRVVLKWPEDSPSDYIHANWVKINGANKFICTQGPTEKTVDDFYRLIWQEKAPCVVMLCNIMECGKKKCEQYWPETADGQMILMDGKLTVKIAEPAKEVEQNILLMKITVIDDKGTSHNFEHWQWKAWPDRGVPELPMALKTASPIVVHCSAGIGRTGSIVGLEIALVKFCAGEKVVLKDIVKEIRNQRHGSVQTDAQYLFMHRVLLALAENRKITSPELSAFVAEYDKVIATKNG | not soluble
MKYTFLLLCAIFGCTLAMRQQSVAVSGKLMCGSKPASGVKVKLWDEDDGPDPDDVLDEGFTNNDGTFRLEGSERELTNIDPVFKVYHDCDDGIIPGQRKIKFRIPNKYISAGGRAQKTFEIGVLNLETIFPKEERDLL | not soluble
SLPYRGTLVMLMNEEVNKIITLCGKDWAKIGVEFIFLGGKQECENCKIKKTCLKLKEGAKYKIVGLRDGAVQECPLHDEGVVAVEVVELPIIALVDSKIAVEGAKIHYEQRKCDVYDCSMYSLCHPIELNNGETVIVEKVIGDAPEQCRKGHSVIVAELRRAEE | soluble
MKSMQDYRTIMTGNDAVAYGAKLARVKLISAYPITPQTTIVEKLASMIANDELDAKYVKVESEHSALATVVSSELAGVRSYTATSSHGLLYMHEMLHWASGQRLPIVMSVVNRAIGPPWNIWADQSDTMNQKDTGWMQVYCESNQEALDTIIMGYKIAENKDVLLPLMSMEDAFILSHTSEPVTIRDQESVNEYLPDLDLPFKINEEHPMGYGSYDTPDGSFMELKKDMVDSMQKAKRIIEDETRKFNEMFGTEYGGLIEKYRMEDADYAIIATGTIASTARYVVDILRKKGEKVGLIRIRYFRPFPYEEILSSLKYVKAAGVIDRSVSFSSGGPTYVEIVQGLYGKLNVPLSSFIAGIGGRDVRIQDIENIYEMLKSGNSGTYWINVKEVR | not soluble
MKTTEFTMPEITISYKDNVKASERVKILSSETSYTYLKPFYAECMEHHEESYVMFLNRANKALGISLISKGGMAETVMDVKIILQTALKVHASGIVLSHNHPSGNLRPSEPDKKITTKINEACKVLDLHLLDHIILTEESYYSFADEGLL | not soluble
MTTHQFEHPLNEKTRIYLRVEALLNQMERASTFSDGIQHQLFFRSLFDMLEIFEQIQLKSELAKDMEKQRLTYRSWLHVEGVDQEMLNSLLTEVDEVHRDLMSAERFGQSLKEDRFLSAIRQRFNLPGGSCCFDLPALHYWLHLPLDRKMRDAQQWMQTVTPLSNALKLWLKLTRETGHYRSRMASNGFYQSDAEDANILRLAIPLEYGVYPMISGHKNRFAIKFIDFHSGQACTQDIAFDLAVCC | not soluble
MGNLCSTSKNEAEPFSRPGRVLGSAANPPPNAAPRAPLPAKSKAPFKSPGRSLGEAAPEVPGAERADARTNAAIAAQVSDTVERSGAALVCGRWLTGECQKRAESAAKAQKGKLGSKLAAQKAQTQAKTLSEVSREQISARHMDESSEARRWN | not soluble
MGSDKIHHHHHHMEALLQLKGIDKAFPGVKALSGAALNVYPGRVMALVGENGAGKSTMMKVLTGIYTRDAGTLLWLGKETTFTGPKSSQEAGIGIIHQELNLIPQLTIAENIFLGREFVNRFGKIDWKTMYAEADKLLAKLNLRFKSDKLVGDLSIGDQQMVEIAKVLSFESKVIIMDEPTDALTDTETESLFRVIRELKSQGRGIVYISHRMKEIFEICDDVTVFRDGQFIAEREVASLTEDSLIEMMVGRKLEDQYPHLDKAPGDIRLKVDNLCGPGVNDVSFTLRKGEILGVSGLMGAGRTELMKVLYGALPRTSGYVTLDGHEVVTRSPQDGLANGIVYISEDRKRDGLVLGMSVKENMSLTALRYFSRAGGSLKHADEQQAVSDFIRLFNVKTPSMEQAIGLLSGGNQQKVAIARGLMTRPKVLILDEPTRGVDVGAKKEIYQLINQFKADGLSIILVSSEMPEVLGMSDRIIVMHEGHLSGEFTREQATQEVLMAAAVGKLNRVNQE | not soluble
SDSAWTALDMETQTMLKTAIKDPKTVDLEKLSNAVVEHSLKDLSFCKDAGRMCYAVVQAEAQKTASSVFRRNLLNRLQQEFIAREETRKRSMQEWVCVVTFICSIFDYIKVNNSPIAALVDPVYDCLFRLAQPDSLMNEEEVDCLVVQLHRVGEQLEQTNSERMNQLFYLLRDGFLLQEDLSSMTRLLLLEILEFRASGWTLSETAHKYYYSEVAD | soluble
MAHHHHHHMLPAGLTLNTLTPLAQIPVELQRLARCAINAHRNAYCPYSKFAVGAALLHKDLKITAGCNYENCTLKGCCAELCAIVKGNSEGRRTATAVAVYGCSKAPDVMNLPPPDTVTPPCGFCRQSLVEVADLSNNYEDFLVVLVTLDKERVKLVKLCDIIPLKFGPSNIGMDLSQLAKDVELGNEDEKK | not soluble
MGSDKIHHHHHHMELRVGGAKPSDNSPAASKGFSDPLDSHGVPGRSKQYLIHSAFTGTIGGVAMAYVDWAIKGPKIASCSCDYGCPCEFNGKPTEGLCEGLECMLIEEGWFGDLRLDGLKVAAVYRWPGPVHEGGGVVRGFFDANADQAQIDALFTILGGKEQEPTTVFNIYGSTIAQELEPIFAPIEFHSDIEKRTGGFRIDGHLELELEPIRNPVTGAPHRARIVLPEGFEFRQAEIASGTFNANGEIAMGRQKRYGALWRAAYGPYGIIEE | not soluble
MMKTNTKKAKYDDAELFEKVLVGMSWLESHLREIIQTMVTDADVSFEQFLILYYLDHSTDHRITVKELAADRHVSSSAISRKLTYLINNDLIVLNIDPYDRRYRYLTLTAKGEKLARVIEKVNEERLGKFLDEFGRIRTSELTDELRMVSKVLVDTKEIKG | not soluble
MGSDKIHHHHHHMSQAIPSSRVGVKINEWYKMIRQFSVPDAEILKAEVEQDIQQMEEDQDLLIYYSLMCFRHQLMLDYLEPGKTYGNRPTVTELLETIETPQKKLTGLLKYYSLFFRGMYEFDQKEYVEAIGYYREAEKELPFVSDDIEKAEFHFKVAEAYYHMKQTHVSMYHILQALDIYQNHPLYSIRTIQSLFVIAGNYDDFKHYDKALPHLEAALELAMDIQNDRFIAISLLNIANSYDRSGDDQMAVEHFQKAAKVSREKVPDLLPKVLFGLSWTLCKAGQTQKAFQFIEEGLDHITARSHKFYKELFLFLQAVYKETVDERKIHDLLSYFEKKNLHAYIEACARSAAAVFESSCHFEQAAAFYRKVLKAQEDILKGRVFICLLRKKVMMCLAVTLVFGSMSFPTLTNSGGFKESTDRNTTYIDHSPYKLSDQKKALS | not soluble
MVDGFVQPVGEGLADQLVGHQVGYGGVQWDQCLAEVGDVAVVHFFHQAVRQVGFVEQGVEAVVAGEQRRRGEEELLGDLQHRLDPFLDAGFAGHAVGGVEQVRYLFDVGVDEAGEYVFRVLALRLDGAMQVGQAAGYQISQVTVAGFAEVRLLDEFTEGSGVHGVSHTTGMVKKRRNIAGGARRLRRDCHNRFVVMRG | not soluble
KIGFKLGGGFEYAFDNTWSLQPSLFLSTKGAKKDGNSINAMYLELPVMAAARFNVADNTNIVVNAGPYLACGIAGKTKIDLGNDTERKYDTFGDDALKRFDAGLGVGVALELGKVIVGLDGQFGLVDVEKIGNPKNTNFSIVLGYKF | not soluble
MAHHHHHHMTSVLAVVNARRVWRGASVLQPAVSSSYPPEVDALLVEGGRISFIGSTAEVQQRYGALVAAQPVDAAAAAPQPVEGGRPRTVSHRVIDCEHRHAVYPGFIDSHVHFLDGGRMLLAPQLGFATSRTQFTAIVRDFVEHRYNREEGGWVYGVGWSEAVLGCSPTREWLDEVSTKIHLVMYSKDIHSAVMNTAALRSCHIIPGAEDGEPLITSVEGGVIELNENGQPSGVLRDNAIQLAKRYAPAADTPANQRRALEAATEHLLSLGFTSVFSMMSTTYMDNVSEINFLAQMEREGAMRLRVRYGVPLSDVERLMDKFYRVMATDAAQSGRSDDFTLPYRFTMTPPAAGGGYLLLGAVKLFADGSLSSRTAAMNRPYGYNVTTEGDIDSDLDDAAISALLKERSGKQCQCGLLTMSRLELQCAIRVAHSHDLQCVVHAIGDRAVATVNRALCASADWLRERGAEAGVVAAVARFRADPRSRVEHCQHMSSMTKEVKRMAQYGIIASMQPCHLLFDGDYVDTLLGQRRKDTSYMWGTLLAAKIRVDLGSDWPVAPADVNDGLRGAVTRVPDVMTALAAEEAQYRSQQQAQPSADNTAACAATALRRYHDTWNPAECISMDAALRTYTYEGAHGMFMENYLGTLEVGKYADITVWTADWLDDAEMEQMAGVEGANARWWPRHREPHVAYTIVGGVVEYDRSH | not soluble
MGSDKIHHHHHHMKTERILGALYGQALGDAMGMPSELWPRSRVKAHFGWIDRFLPGPKENNAACYFNRAEFTDDTSMALCLADALLEREGKIDPDLIGRNILDWALRFDAFNKNVLGPTSKIALNAIRDGKPVAELENNGVTNGAAMRVSPLGCLLPARDVDSFIDDVALASSPTHKSDLAVAGAVVIAWAISRAIDGESWSAIVDSLPSIARHAQQKRITTFSASLAARLEIALKIVRNADGTESASEQLYQVVGAGTSTIESVPCAIALVELAQTDPNRCAVLCANLGGDTDTIGAMATAICGALHGVNAIDPALKAELDAVNQLDFNRYATALAKYRQQREAV | not soluble
MSEITIGVLSLQGDFEPHINHFIKLQIPSLNIIQVRNVHDLGLCDGLVIPGGESTTVRRCCAYENDTLYNALVHFIHVLKKPIWGTCAGCILLSKNVENIKLYSNFGNKFSFGGLDITICRNFYGSQNDSFICSLNIISDSSAFKKDLTAACIRAPYIREILSDEVKVLATFSHESYGPNIIAAVEQNNCLGTVFHPELLPHTAFQQYFYEKVKNYKYSLEHHHHHH | soluble
MMKKDYRTQVIEDLKKQDKAKKVLRDEQLLEELIQLEAYQKAHVIATYLAFPFEFDTSLLIEQAQRDNKSIVVPKTYPQGKMIFVVYDEADLQITKFGLKEPRSEEALEKSAIDLIHVPGLAFNNEGYRIGFGAGYYDQYLADFQGDTVSTIYSFQKFTFEPSFFDIPVKEVLVSGDLLEHHHHHH | soluble
